One experiment deals with viral gp41 of HIV-1 (on HIV-1 virions and HIV-1 infected cells) (HIV-1) (UniProt P04578). Put plainly: cell-based or functional assay.
Substance “M41-PΔ178 (M41Δ178 with the Ile to Pro mutation at position 578) (from UniProt P03377 540-642)” gave a Cell Fusion (IC90) of over 50000 nM and an HIV-infectivity (IC90) of over 8000 nM.

Substance DP107 (peptide) came in with a Cell Fusion (IC90) of 1000 nM and an HIV-infectivity (IC90) of 1000 nM.

As to “M41 (maltose binding protein fused to the extracellular domain of HIV-1 gp41, residues 540-686) (from UniProt P03377 540-686)”, the Cell Fusion (IC90) is over 50000 nM and the HIV-infectivity (IC90) was over 16 nM.

Consider DP178 (peptide), for which the Cell Fusion (IC90) was found to be 1 nM and the HIV-infectivity (IC90) is 80 nM.

Take “M41-P (M41 with Ile to Pro mutation at position 578) (from UniProt P03377 540-686)”: the Cell Fusion (IC90) stood at 83 nM and the HIV-infectivity (IC90) came to 66 nM.

Another experiment has as its target MF-IV (MF5.1): E. coli maltose binding protein fused to RSV F protein residues 142-302 (E. coli; respiratory syncytial virus (strain A2)) (UniProt P03420). Put plainly: competitive binding assay (B50) on the MF5.1 fusion protein (DP107 target).
Consider T1091 (peptide), for which the binding affinity worked out at 19 nM.

Another experiment has the same target. Put plainly: competitive binding assay (B50) on the MF5.1 fusion protein; reference T112.
Regarding T1091 (peptide), the fold lower binding affinity than T112 was found to be 10 fold.

The values are drawn from US6623741.
